Measured values taken from publication PMC3834829, “A signature motif mediating selective interactions of BCL11A with the NR2E/F subfamily of orphan nuclear receptors” (Nucleic Acids Research, 2013).

T1: LexA-COUP-TFII-LBD-(144–414) (UniProt P24468 144-414)
T1 construct: the bait copy of the LBD in the dimer assay; same residues as m19; also called wild-type COUP-TFII LBD; full-length LBD; source: yeast two-hybrid fusion (S. cerevisiae L40)
T1 sequence (looked up): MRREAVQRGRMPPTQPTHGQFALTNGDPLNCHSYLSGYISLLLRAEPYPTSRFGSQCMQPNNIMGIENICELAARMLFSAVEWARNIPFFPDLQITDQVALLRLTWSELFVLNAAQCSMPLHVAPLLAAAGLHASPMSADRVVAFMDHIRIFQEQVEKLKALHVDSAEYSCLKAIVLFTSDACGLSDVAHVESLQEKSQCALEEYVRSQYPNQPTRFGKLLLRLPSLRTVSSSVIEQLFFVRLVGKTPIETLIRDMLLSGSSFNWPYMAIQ

B1: AAD-EAR2-LBD-(121–399) (domain or fragment)
chain: MRKEAVQRGRIPHSLPGAVAASSGSPPGSALAAVASGGDLFPGQPVSELIAQLLRAEPYPAAAGRFGAGGGAAGAVLGIDNVCELAARLLFSTVEWARHAPFFPELPVADQVALLRLSWSELFVLNAAQAALPLHTAPLLAAAGLHAAPMAAERAVAFMDQVRAFQEQVDKLGRLQVDSAEYGCLKAIALFTPDACGLSDPAHVESLQEKAQVALTEYVRAQYPSQPQRFGRLLLRLPALRAVPASLISQLFFMRLVGKTPIETLIRDMLLSGSTFNWP
B2: AAD-COUP-TFII-LBD-(144–414) (domain or fragment)
chain: MRREAVQRGRMPPTQPTHGQFALTNGDPLNCHSYLSGYISLLLRAEPYPTSRFGSQCMQPNNIMGIENICELAARMLFSAVEWARNIPFFPDLQITDQVALLRLTWSELFVLNAAQCSMPLHVAPLLAAAGLHASPMSADRVVAFMDHIRIFQEQVEKLKALHVDSAEYSCLKAIVLFTSDACGLSDVAHVESLQEKSQCALEEYVRSQYPNQPTRFGKLLLRLPSLRTVSSSVIEQLFFVRLVGKTPIETLIRDMLLSGSSFNWPYMAIQ
B3: AAD-COUP-TFII-LBD V224A (domain or fragment, UniProt P24468 144-414, looked up)
chain: MRREAVQRGRMPPTQPTHGQFALTNGDPLNCHSYLSGYISLLLRAEPYPTSRFGSQCMQPNNIMGIENICELAARMLFSAAEWARNIPFFPDLQITDQVALLRLTWSELFVLNAAQCSMPLHVAPLLAAAGLHASPMSADRVVAFMDHIRIFQEQVEKLKALHVDSAEYSCLKAIVLFTSDACGLSDVAHVESLQEKSQCALEEYVRSQYPNQPTRFGKLLLRLPSLRTVSSSVIEQLFFVRLVGKTPIETLIRDMLLSGSSFNWPYMAIQ
notes: expressed at a 2-fold lower level than the other constructs of the series; also called V224A mutant; source: yeast two-hybrid fusion (S. cerevisiae L40)

These molecules were tested against AAD-LRH-1-LBD-(133–495) (UniProt O00482) (assay: yeast two-hybrid). Conditions: parent: est. 1100; read off a plot.
AAD-LRH-1-LBD-(133–495), sequence (O00482 133-495): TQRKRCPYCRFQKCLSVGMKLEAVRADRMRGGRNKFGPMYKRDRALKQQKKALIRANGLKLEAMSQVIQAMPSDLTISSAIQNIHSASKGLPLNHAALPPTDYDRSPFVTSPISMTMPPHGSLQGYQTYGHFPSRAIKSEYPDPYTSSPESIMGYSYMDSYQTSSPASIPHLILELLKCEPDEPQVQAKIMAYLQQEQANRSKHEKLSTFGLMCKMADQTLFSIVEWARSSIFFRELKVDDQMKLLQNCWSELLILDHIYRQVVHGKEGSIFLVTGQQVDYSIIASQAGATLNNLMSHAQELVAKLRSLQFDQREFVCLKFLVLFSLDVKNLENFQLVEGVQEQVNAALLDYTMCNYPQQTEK
LexA-NSD1-(790–818) D812A was tested, and the response was 660 nmol/mg/min. With LexA-NSD1-(790–818) F803A the response was 310 nmol/mg/min. With LexA-NSD1-(790–818) K802A the response was 1300 nmol/mg/min. For LexA-NSD1-(790–818) K811A, the response was 710 nmol/mg/min. Work on LexA-NSD1-(790–818) L806A yielded a response of 0 nmol/mg/min. LexA-NSD1-(790–818) L807A gave a response of 470 nmol/mg/min. Work on LexA-NSD1-(790–818) L810A yielded a response of 0 nmol/mg/min. With LexA-NSD1-(790–818) M808A the response was 900 nmol/mg/min. LexA-NSD1-(790–818) M809A gave a response of 0 nmol/mg/min. In the case of LexA-NSD1-(790–818) S804A, the response is reported as 0 nmol/mg/min. LexA-NSD1-(790–818) Y801A gave a response of 690 nmol/mg/min.

These molecules were tested against LexA-BCL11A RID1 F315A (UniProt Q9H165) (assay: two-hybrid; S. cerevisiae L40; LexA DBD fusion with VP16 AAD-NR fusion; β-galactosidase activity in cell-free extracts; vehicle only or no ligand). Conditions: not given.
Work on B1 yielded a fold lower reporter activation than wild-type RID1 of 2 fold.

Each molecule was assayed against LexA-BCL11A RID1 R317A (UniProt Q9H165) in the same assay as above. Conditions: not given.
For B2, the fold lower reporter activity than wild-type RID1 was 5 fold.

These molecules were tested against LexA-BCL11A RID1 R320A (UniProt Q9H165) in the same assay as above. Conditions: not given.
Molecule B2 has a fold lower reporter activity than wild-type RID1 of 5 fold.

These molecules were tested against T1, LexA-COUP-TFII-LBD-(144–414) in the same assay as above. Conditions: partners not purified.
In the case of B3, the “fold reduction of reporter activation due to homodimer formation” value is reported as roughly 2.5 fold.
